From US20050049403A1 (CAMBRIDGE ANTIBODY TECHNOLOGY, published 2005)
Substitutions are numbered along the chain they refer to.

What was measured:
[1] = target: T1, TGFβ2 in rat tissue sections (rat, UniProt Q07257 331-442, limits assumed); assay: immunohistochemistry, 6B1 IgG4 at 500 ng/ml on pronase E treated rat kidney sections
T1 construct: also called rat TGFβ2
T1 sequence (looked up): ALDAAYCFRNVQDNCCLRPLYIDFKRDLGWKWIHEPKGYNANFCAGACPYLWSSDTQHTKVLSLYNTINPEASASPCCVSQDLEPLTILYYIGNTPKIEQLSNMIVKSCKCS
Experimental: Paraffin embedded rat tissues were de-waxed and rehydrated through an alcohol series. The sections were then treated with 0.1% pronase E for exactly 8 min and then washed in water. TGFβ2 was detected in the sections using 6B1 IgG4 at 500 ng/ml following the protocol provided with a Vectastain ABC (avidin-biotin-complex) kit from Vector Laboratories. On kidney sections, bound antibody was located with alkaline phosphatase and peroxidase was used on rat brain tissues.

recombinant human TGFβ2 [2] = target: T2, recombinant human TGFβ2 (human, UniProt P61812 303-414); assay: cell-based or functional assay
T2 sequence (looked up): T1 sequence (looked up) with T59S, K60R, N94K

recombinant human TGFβ2 [3] = target: T2, recombinant human TGFβ2; assay: BIAcore 2000, koff divided by kon
Experimental: To determine the kinetic parameters, a series of dilutions of the antibody samples was made in HBS from about 500 μg/ml down to less than 1 μg/ml, usually through doubling dilutions. After the antibody has been injected over the antigen surface, the surface is washed with HBS, then regenerated by stripping off the bound antibody with a pulse of 100 mM HCl. At the higher concentrations of antibody the antigen on the chip surface is saturated, and the off rate is determined on washing with buffer in the dissociation phase. For determination of the on-rate, lower concentrations of antibody are used, giving a linear binding phase in the sensorgram, allowing kₒₙ determination.
6B1 IgG4 was purified from the GS/NS0 cell line of Example 10 as in Example 2. 6B1 single chain Fv was expressed intracellularly in E. coli, refolded in vitro (using the methodology of WO94/18227), and purified to give a homogeneous product. The values of kₒₙ and koff were determined for 6B1 IgG4 for binding to both TGFβ2 and TGFβ3, and for the single-chain Fv 6B1 for binding to TGFβ2. The dissociation constant was calculated by dividing koff by kₒₙ.

recombinant human TGFβ1 = target: T3, recombinant human TGFβ1 (human, UniProt P01137 279-390); assay: A549 cell radioreceptor assay (nM IgG); A549 cell radioreceptor assay; no inhibition up to 400 nM IgG
T3 construct: mature; also called TGFbeta1
Experimental: (§1) Aliqouts of ¹²⁵I-TGFβ1 or TGFβ2 (70-90 TBq/mmol; Amersham International) at 20 pM are preincubated with antibody in binding medium at room temperature for 1 h. Duplicate samples of 0.5 ml of TGFβ/antibody mixtures are then added to the cell monlayers and are incubated at 37° C. for 1-2 h. Control wells contain TGFβ only. Unbound TGFβ is removed by washing 4 times with Hank's balanced salt solution containing 0.1% BSA. Cells are solubilised in 0.8 ml 25 mM Tris HCl pH 7.5, 10% glycerol, 1% Triton X-100 at room temperature for 20 min. The contents of each well are removed and ¹²⁵I measured in a gamma counter.
(§2) The ability of 6B1 IgG4 to inhibit binding of TGFβ isoforms to receptors was measured in a radioreceptor assay as described in example 4.

recombinant human TGFβ2 [4] = target: T2, recombinant human TGFβ2; assay: cell-based or functional assay; remark: listed apart in the source
[5] = target: irrelevant peptide …; assay: BIACore, peptide at 745 µM (1 mg/ml) over immobilised 6B1 IgG4 (5000RU)
ovalbumin = target: T4, ovalbumin (UniProt P01012 2-386); assay: ELISA, antigen coated at 10 µg/ml, anti-human Fc alkaline phosphatase conjugate, OD405 nm [a]
T4 sequence (looked up): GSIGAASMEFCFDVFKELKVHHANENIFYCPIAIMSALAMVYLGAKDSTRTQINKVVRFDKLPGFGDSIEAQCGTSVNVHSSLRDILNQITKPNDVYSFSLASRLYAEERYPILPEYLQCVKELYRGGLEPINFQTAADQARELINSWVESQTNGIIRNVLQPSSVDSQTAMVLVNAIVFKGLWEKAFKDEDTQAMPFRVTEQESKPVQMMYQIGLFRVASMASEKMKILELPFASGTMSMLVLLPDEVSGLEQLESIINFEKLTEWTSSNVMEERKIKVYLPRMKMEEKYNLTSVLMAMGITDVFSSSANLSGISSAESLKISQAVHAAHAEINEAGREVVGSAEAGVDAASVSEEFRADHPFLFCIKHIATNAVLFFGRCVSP
Experimental: (§3) For both FIG. 13(a) and FIG. 13(b), antigens 1 to 15 were used for coating the plate at a concentration of 10 μg/ml in PBS. The TGFbetas were coated at 0.2 μg/ml in PBS. Coating was performed at 4° C. overnight. […] of each antigen was used per well and duplicates of each antigen for each IgG to be tested. IgG samples were incubated with the coated antigens at 37° C. for 2 hours after blocking with 2%. marvel-PBS. The labelled second antibody was a mouse anti-human Fc1 alkaline phosphatase conjugated and the substrate used to detect bound second antibody was PNPP at 1 mg/ml with the absorbance read at 405 nm.

human serum albumin = human serum albumin (human, UniProt P02768 25-609); assay: as above
Experimental: as §3

human lymphotoxin (TNFβ) = target: T5, human lymphotoxin (TNFβ) (human, UniProt P01374 35-205, limits assumed); assay: as above
T5 sequence (looked up): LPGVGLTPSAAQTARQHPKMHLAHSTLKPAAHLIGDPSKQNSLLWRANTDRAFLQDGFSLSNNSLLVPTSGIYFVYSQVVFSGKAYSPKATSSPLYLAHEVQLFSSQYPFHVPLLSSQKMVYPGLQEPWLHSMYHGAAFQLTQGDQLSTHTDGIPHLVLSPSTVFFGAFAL
Experimental: as §3

recombinant human TGFβ2 [6] = target: T2, recombinant human TGFβ2; assay: A549 cell radioreceptor assay (nM IgG)
Experimental: as §1, §2

T3 sequence (P01137 279-390 limits assumed): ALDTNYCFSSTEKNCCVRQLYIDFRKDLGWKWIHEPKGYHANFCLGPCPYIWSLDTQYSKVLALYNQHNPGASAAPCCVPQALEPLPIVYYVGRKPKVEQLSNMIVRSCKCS
human serum albumin, sequence (P02768 25-609 limits assumed): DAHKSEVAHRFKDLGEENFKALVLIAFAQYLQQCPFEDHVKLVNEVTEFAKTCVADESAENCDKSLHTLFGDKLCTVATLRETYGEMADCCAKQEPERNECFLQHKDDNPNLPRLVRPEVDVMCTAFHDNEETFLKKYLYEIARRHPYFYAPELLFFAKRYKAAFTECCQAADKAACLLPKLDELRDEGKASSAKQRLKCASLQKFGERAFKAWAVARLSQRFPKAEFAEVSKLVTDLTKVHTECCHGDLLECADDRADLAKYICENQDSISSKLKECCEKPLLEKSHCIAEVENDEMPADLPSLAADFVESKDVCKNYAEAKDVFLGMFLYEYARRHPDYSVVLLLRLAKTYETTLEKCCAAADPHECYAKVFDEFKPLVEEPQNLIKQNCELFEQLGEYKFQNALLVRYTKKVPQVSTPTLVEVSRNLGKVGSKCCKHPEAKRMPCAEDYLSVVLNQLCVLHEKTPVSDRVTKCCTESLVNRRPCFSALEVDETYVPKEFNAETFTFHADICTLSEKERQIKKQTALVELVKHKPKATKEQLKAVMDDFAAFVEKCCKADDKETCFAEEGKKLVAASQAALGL

B1: 6B1 IgG4 (antibody, V domains shown)
VH: EVQLVESGGGVVQPGRSLRLSCAASGFTFSSYGMHWVRQAPGKGLEWVAVIWYDGSNKYYADSVKGRFTISRDNSKNTLYLQMDSLRAEDTAVYYCGRTLESSLWGQGTLVTVSS
VL: SSELTQDPAVSVALGQTVRITCQGDSLRSYYASWYQQKPGQAPVLVIYGKNNRPSGIPDRFSGSSSGNTASLTITGAQAEDEADYYCNSRDSSSTHRGVFGGGTKLTVLG
notes: Whole antibody: human gamma 4 and human lambda constant regions; FITC-labelled in the human tissue study; also called antibody 6B1
- binding result [1]: binds
- IC50 in TF1 neutralisation assay, 6B1 IgG4 from GS/NS0 cell line 5D8-2A6 (recombinant human TGFβ2 [2]): 1800 pM
- Kd (recombinant human TGFβ2 [3]): 890 pM
- IC50 (recombinant human TGFβ1): > 400000 pM
- I.C.50 in TF1 assay (neutralisation of TGFβ2 inhibition of TF1 cell proliferation) (recombinant human TGFβ2 [4]): 11 nM
- amount of binding to 6B1 IgG4 surface, RU [5]: 60.9 RU
- binding result (ovalbumin): no binding
- binding result (human serum albumin): no binding
- binding result (human lymphotoxin (TNFβ)): no binding
- IC50 (recombinant human TGFβ2 [6]): 50 pM
